According to US20260085114A1 (KYINNO BIOTECHNOLOGY, published 2026):

B1: murine antibody 9D7 (A1 antibody) (antibody, V domains shown)
VH: QVQLKESGPGLVKPSQSLSLTCTVTGYSITSDYAWNWIRQFPGNKLEWMGYISYSGSATYNPSLKSRISITRDTSKNQFFLQLNSMTTEDTATYYCARGGIAGRGRWGAMDYWGQGTSVTVSS
VL: DIVMTQAQKFMSTSVGDRVSVTCKASQNVGTNVAWYQNKPGQSPKALIYSASYRDSGVPDRFTGRGSGTDFTLTISNVQSEDLAEYFCQQYKSYPLTFGAGTKLELK
notes: Tested as hybridoma cell culture supernatant; also called murine anti-9D7
B2: GPRC5D×CD3 JNJ (anti-hGPRC5D×CD3 bispecific antibody built with the GPRC5D-targeting and CD3-targeting domains of Talquetamab, JNJ-64407564) (bispecific antibody, human IgG1, kappa, lambda)
heavy 1: QVQLVQSGAEVKKPGASVKVSCKASGYSFTGYTMNWVRQAPGQGLEWMGLINPYNSDTNYAQKLQGRVTMTTDTSTSTAYMELRSLRSDDTAVYYCARVALRVALDYWGQGTLVTVSSASTKGPSVFPLAPSSKSTSGGTAALGCLVKDYFPEPVTVSWNSGALTSGVHTFPAVLQSSGLYSLSSVVTVPSSSLGTQTYICNVNHKPSNTKVDKRVEPKSCDKTHTCPPCPAPPAAGPSVFLFPPKPKDTLMISRTPEVTCVVVDVSHEDPEVKFNWYVDGVEVHNAKTKPREEQYNSTYRVVSVLTVLHQDWLNGKEYKCKVSNKALAAPIEKTISKAKGQPREPQVYTLPPCREEMTKNQVSLWCLVKGFYPSDIAVEWESNGQPENNYKTTPPVLDSDGSFLLYSKLTVDKSRWQQGNVFSCSVMHEALHNHYTQKSLSLSPGK
heavy 2: QTVVTQEPSLTVSPGGTVTLTCRSSTGAVTTSNYANWVQQKPGQAPRGLIGGTNKRAPGTPARFSGSLLGGKAALTLSGVQPEDEAEYYCALWYSNLWVFGGGTKLTVLSSASTKGPSVFPLAPSSKSTSGGTAALGCLVEDYFPEPVTVSWNSGALTSGVHTFPAVLQSSGLYSLSSVVTVPSSSLGTQTYICNVNHKPSNTKVDDRVEPKSCDKTHTCPPCPAPPAAGPSVFLFPPKPKDTLMISRTPEVTCVVVDVSHEDPEVKFNWYVDGVEVHNAKTKPREEQYNSTYRVVSVLTVLHQDWLNGKEYKCKVSNKALAAPIEKTISKAKGQPREPQVCTLPPSREEMTKNQVSLSCAVKGFYPSDIAVEWESNGQPENNYKTTPPVLDSDGSFFLVSRLTVDKSRWQQGNVFSCSVMHEALHNHYTQKSLSLSPGK
light 1: DIQMTQSPSSLSASVGDRVTITCKASQNVATHVGWYQQKPGKAPKRLIYSASYRYSGVPSRFSGSGSGTEFTLTISNLQPEDFATYYCQQYNRYPYTFGQGTKLEIKRTVAAPSVFIFPPSDEQLKSGTASVVCLLNNFYPREAKVQWKVDNALQSGNSQESVTEQDSKDSTYSLSSTLTLSKADYEKHKVYACEVTHQGLSSPVTKSFNRGEC
light 2: EVQLVESGGGLVQPGGSLRLSCAASGFTFNTYAMNWVRQAPGKGLEWVARIRSKYNNYATYYAASVKGRFTISRDDSKNSLYLQMNSLKTEDTAVYYCARHGNFGNSYVSWFAYWGQGTLVTVSSGQPKAAPSVTLFPPSSEELQANKATLVCLISDFYPGAVTVAWKADSSPVKAGVETTTPSKQSNNKYAASSYLSLTPEQWKSHRSYSCQVTHEGSTVEKTVAPTECS
notes: used as the positive control antibody throughout; also called Positive control antibody
B3: murine antibody 26D1 (A2 antibody) (antibody, V domains shown)
VH: QVQLKQSGAELAGPGASVKMSCKASGYTFTSYTIQWIKQRPGQGLEWIGYIIPSSGYTNYNQKFKDKATLTADKSSNTAYMQLSSLTSEDSAVYYCANNYGNWGFTYWGQGTLVTVSA
VL: DILMTQSQKFMSTSVRDRVSISCKASQNVGSAVTWYQQKPGQSPRLLIYSASNRYTGVPDRFTGSGSGTDFTLTISNVQSEDLADYFCQQYSNYPLTFGGGTKLEIK
notes: Tested as hybridoma cell culture supernatant; also called murine anti-26D1
B4: murine antibody 6E97 (A4 antibody) (antibody, V domains shown)
VH: QVQLKESGPELVKPGASVKISCKASGYTFPYYVIHWVKQKPGQGLEWIGYINPYNDGTKYNEKFKGKAALTSDKSSSTAYMELSSLTSEDSAVYYCARGGVRRYFDYWGQGTTLTVSS
VL: QIVLTQSPSSLSASLGERVSLTCRASQDIGSNLNWLQQEPDGTIKRLISATSSLDSGVPKRFSGSRSGSDYSLTISSLESEDFVDYFCLQYATFPYTFGGGTKLEIK
notes: Tested as hybridoma cell culture supernatant; also called murine anti-6E97

How the values were obtained:
[1] = target: T1, human GPRC5D (G protein-coupled receptor class C group 5 member D), on cells (human, UniProt Q9NZD1 1-345); assay: FACS, hybridoma supernatant on MM1R cells
T1 construct: whole, on cells; also called hGPRC5D

[2] = target: T1, human GPRC5D (G protein-coupled …); assay: FACS, hybridoma supernatant on OPM2 cells
[3] = target: T2, Nalm6 cells (NALM6, Kyinno, catalog number KC-0626); assay: FACS, hybridoma supernatant on Nalm6 cells
T2 construct: Kept apart from human GPRC5D so that the low MFI values on this line are not laid to the GPRC5D pair

[4] = target: T1, human GPRC5D (G protein-coupled …); assay: FACS, hybridoma supernatant on NCI-H929 cells
Protocol: (§1) 100 μl of FACS buffer was then added to each FACS tube for resuspension. 5 μl of PE-labeled, anti-murine Fc tagged secondary antibody (Biolegend, catalog number 409304) was added according to instructions, and incubated at 4° C. in the dark for 30 mins. Then 1 ml of FACS buffer was added, and centrifuged at 1200 rpm at room temperature for 5 mins. The supernatant was discarded followed by washing three times.

[5] = target: T1, human GPRC5D (G protein-coupled …); assay: FACS, hybridoma supernatant on 293T cells expressing human GPRC5D
Protocol: (§2) 293T cells expressing human GPRC5D as described above was prepared into a suspension at concentration of 1×10⁵ cells/ml in PBS containing 2% FBS.
(§3) 1 ml of FACS buffer was added to each FACS tube, centrifuged at 1200 rpm for 5 mins. The supernatant was discarded followed by washing three times. At the same time, control tube 1 (no supernatant of the culture and the secondary antibody mentioned below, adding only cell suspension) and control tube 2 (no supernatant of the culture, adding only cell suspension and the secondary antibody mentioned below) were included.
as §1

[6] = target: T1, human GPRC5D (G protein-coupled …); assay: as above; remark: listed apart in the source
Protocol: as §2, §3, §1

[7] = target: T1, human GPRC5D (G protein-coupled …); assay: as above; remark: listed apart in the source
Protocol: as §2, §3, §1

[8] = target: T3, monkey (cyno) GPRC5D, on 293T cells (monkey (cyno)); assay: FACS, hybridoma supernatant on 293T cells expressing monkey GPRC5D
T3 construct: whole, on cells; also called monkey GPRC5D
From the text: (§4) According to the method described in Example 4, the binding between the culture supernatant of the hybridoma cells and monkey GPRC5D was detected, except that the human GPRC5D-expressing cells were replaced with 293T cells expressing monkey GPRC5D (Kyinno, catalog number KC-1586).

[9] = target: T3, monkey (cyno) GPRC5D, on 293T cells; assay: as above; remark: listed apart in the source
From the text: as §4

[10] = target: T1, human GPRC5D (G protein-coupled …); assay: cell ELISA, hybridoma supernatant on fixed BXPC-3 cells expressing human GPRC5D
Protocol: BXPC-3 cells expressing human GPRC5D (Kyinno, catalog number KC-1717) were prepared into a suspension at concentration of 1×10⁵ cells/ml in PBS containing 2% FBS. The suspension was added to a 96-well plate at 100 μl/well and cultured overnight at 37° C. The wells were cleared of their contents and washed three times with washing solution. 80 μl of 4% tissue fixative (Beyotime, catalog number P0099) was added to each well followed by fixing at room temperature for 15 min, washing twice with PBS and drying. 250 μl of blocking solution containing 2% BSA was added to each well followed by incubation at 37° C. for 1 hr and washing three times with PBS. 50-100 μl of the supernatant of the hybridoma cell culture was added to each well. A positive control (adding serum from fusion mice), a negative control (adding serum from normal mice) and a blank control (adding culture medium) were included. The wells were incubated at 37° C. for 1-2 hrs, washed, and dried. Then, the enzyme-labeled secondary antibody, HRP-labeled goat anti-mouse IgG (SIGMA, catalog number A9044-2 ml) was added at dilution of 1:10000 and 50-100 μl/well. The wells were incubated at 37° C. for 1-2 hrs, washed, and dried. 50-100 μl of freshly prepared developing solution TMB was added to each well and incubated at 37° C. for 10-30 mins.
2 mol/L H₂SO₄ was added to terminate the reaction, and the OD value was read on an enzyme-linked immunosorbent reader.

[11] = target: T3, monkey (cyno) GPRC5D, on 293T cells; assay: FACS on 293T cells expressing monkey GPRC5D
From the text: as §4

[12] = target: T3, monkey (cyno) GPRC5D, on 293T cells; assay: FACS on 293T cells expressing monkey (cyno) GPRC5D (run with 9D7(hz))
Protocol: as §1
(§5) The experimental process was as described in Example 4. […] Control tube 1 (no antibody and secondary antibody, adding only cell suspension) and Control tube 2 (no antibody, adding only cell suspension and secondary antibody) were included.

[13] = target: T3, monkey (cyno) GPRC5D, on 293T cells; assay: FACS on 293T cells expressing monkey (cyno) GPRC5D (run with 24F5(hz))
Protocol: as §1, §5

[14] = target: T3, monkey (cyno) GPRC5D, on 293T cells; assay: FACS on 293T cells expressing monkey (cyno) GPRC5D (run with 6E97(hz))
Protocol: as §1, §5

[15] = target: T4, human GPRC5B, on 293T cells (human, UniProt Q9NZH0 29-403); assay: FACS on 293T-GPRC5B cells, antibody at 2 µg/mL; control tubes 8.55 and 8.26
T4 construct: whole, on cells; also called 293T-GPRC5B
Protocol: as §1
(§6) The experimental process was as described in Example 4, cells expressing other members of G protein-coupled receptor class C group 5 as follows were used: 293T cells expressing human GPRC5A, 293T-GPRC5A (Kyinno, catalog number KC-1888), 293T cells expressing human GPRC5B, 293T-GPRC5B (Kyinno, catalog number KC-1854), and 293T cells expressing human GPRC5C, 293T-GPRC5C (Kyinno, catalog number KC-1889). […] Control tube 1 (no antibody and secondary antibody, adding only cell suspension) and Control tube 2 (no antibody, adding only cell suspension and secondary antibody) were included.

[16] = target: T5, human GPRC5C, on 293T cells (human, UniProt Q9NQ84 24-441); assay: FACS on 293T-GPRC5C cells, antibody at 2 µg/mL; control tubes 8.86 and 8.73
T5 construct: whole, on cells; also called 293T-GPRC5C
Protocol: as §1, §6

[17] = target: T1, human GPRC5D (G protein-coupled …); assay: FACS, hybridoma supernatant on 293T cells expressing human GPRC5D; remark: listed apart in the source
Protocol: as §2, §3, §1

T1 sequence (Q9NZD1 whole entry): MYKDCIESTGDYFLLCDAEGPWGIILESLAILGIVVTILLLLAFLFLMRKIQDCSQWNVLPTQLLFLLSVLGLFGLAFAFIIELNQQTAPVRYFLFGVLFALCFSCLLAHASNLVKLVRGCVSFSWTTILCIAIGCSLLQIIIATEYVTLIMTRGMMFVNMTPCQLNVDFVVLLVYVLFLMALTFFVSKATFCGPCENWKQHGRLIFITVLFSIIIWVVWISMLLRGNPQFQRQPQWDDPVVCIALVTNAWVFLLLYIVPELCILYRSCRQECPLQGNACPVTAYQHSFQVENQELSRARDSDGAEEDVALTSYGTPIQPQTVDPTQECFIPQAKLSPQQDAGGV
T4 sequence (Q9NZH0 29-403): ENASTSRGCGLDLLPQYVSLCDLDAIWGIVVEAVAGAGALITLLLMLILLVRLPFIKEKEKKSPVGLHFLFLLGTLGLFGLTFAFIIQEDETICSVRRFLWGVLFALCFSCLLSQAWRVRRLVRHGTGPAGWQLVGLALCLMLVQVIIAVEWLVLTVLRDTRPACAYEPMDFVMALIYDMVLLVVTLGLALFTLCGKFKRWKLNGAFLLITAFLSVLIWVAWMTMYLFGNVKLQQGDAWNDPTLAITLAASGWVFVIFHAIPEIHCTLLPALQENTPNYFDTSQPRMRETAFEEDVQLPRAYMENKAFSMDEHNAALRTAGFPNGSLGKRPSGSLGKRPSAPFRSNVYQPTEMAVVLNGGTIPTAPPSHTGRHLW
T5 sequence (Q9NQ84 24-441): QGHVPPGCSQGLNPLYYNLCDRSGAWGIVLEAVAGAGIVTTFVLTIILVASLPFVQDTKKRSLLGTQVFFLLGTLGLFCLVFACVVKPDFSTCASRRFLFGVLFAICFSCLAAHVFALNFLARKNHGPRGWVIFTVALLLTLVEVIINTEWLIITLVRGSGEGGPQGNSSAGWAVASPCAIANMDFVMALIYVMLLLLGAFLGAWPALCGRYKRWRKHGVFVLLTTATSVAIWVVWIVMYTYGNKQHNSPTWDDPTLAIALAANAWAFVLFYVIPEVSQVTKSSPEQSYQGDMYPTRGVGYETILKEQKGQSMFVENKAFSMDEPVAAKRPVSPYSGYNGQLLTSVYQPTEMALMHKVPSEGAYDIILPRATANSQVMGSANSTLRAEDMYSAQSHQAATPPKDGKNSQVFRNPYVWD

Binder	MFI.Max [1]	EC50 [2]	MFI.Max [2]	MFI.Max [3]	MFI.Max [4]	EC50 [5]	EC50 [6]	MFI.Max [6]	EC50 [8]	MFI.Max [8]	OD value [10]	also measured
B1	554 MFI	0.177 µg/mL	705 MFI	10.8 MFI	506 MFI	0.185 µg/mL	0.183 µg/mL	9380 MFI	0.376 µg/mL	5440 MFI	0.541 OD	EC50 [1]: 0.104 µg/mL; EC50 [4]: 0.021 µg/mL; EC50 [7]: 0.279 µg/mL; EC50 [9]: 0.229 µg/mL
B2												EC50 [11]: 13.1 µg/mL; EC50 [12]: 14 µg/mL; EC50 [13]: 4.39 µg/mL; EC50 [14]: 3.27 µg/mL; FACS result [15]: 8.44; FACS result [16]: 8.72
B3						0.169 µg/mL			12.3 µg/mL		0.871 OD	EC50 [17]: 0.788 µg/mL
B4	931 MFI	0.291 µg/mL	1080 MFI	62.4 MFI	900 MFI		0.111 µg/mL	9610 MFI	0.243 µg/mL	6290 MFI	1.55 OD	
